Patent US20240317834A1, “COMPOSITIONS AND METHODS FOR NEUROLOGICAL DISEASES” (CODA BIOTHERAPEUTICS, INC., priority 2020, published 2024)
Positions count from the first letter of the chain named. Names and notes keep the numbering of the source.

Experiments:
[1] = tested on: Lenti-X 293T cells; assay: YFP fluorescence quenching anion reporter plate reader assay of engineered receptors stimulated with acetylcholine or a non-native ligand; assay type: cell-based; details: for percent quench of YFP fluorescence, 30 nM TC-6683: TC-6683 30 nM; for percent quench of YFP fluorescence, 300 nM TC-6683: TC-6683 300 nM; for percent quench of YFP fluorescence, 3 uM TC-6683: TC-6683 3 uM; for percent quench of YFP fluorescence, 30 uM TC-6683: TC-6683 30 uM; for percent quench of YFP fluorescence, 100 uM TC-6683: TC-6683 100 uM; for percent quench of YFP fluorescence, 100 uM ach: acetylcholine 100 uM; for percent quench of YFP fluorescence, 300 uM ach: acetylcholine 300 uM; for percent quench of YFP fluorescence, 500 uM ach: acetylcholine 500 uM; for percent quench of YFP fluorescence, 1 mM ach: acetylcholine 1 mM; for percent quench of YFP fluorescence, 3 mM ach: acetylcholine 3 mM; for percent quench of YFP fluorescence, 10 mM ach: acetylcholine 10 mM
Outline: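 Lenti-X 293T cells carrying a YFP anion reporter were transiently transfected with channel DNA and assayed the next day in HEPES-buffered ECS at pH 7.2. Ligand (acetylcholine or non-native ligand) was added in NaI-substituted ECS. Percent quench was the mean of the last 10 s relative to the 15 s pre-addition baseline.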

[2] = Sensitivity of parental chimera SEQ ID NO: 33 to ligands relative to wild type α7-nAChR
[3] = tested on: rat DRG neurons; assay: Rheobase shift and evoked action potentials in rat DRG neurons (current clamp); assay type: cell-based
Outline: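 Rat DRG neurons expressing engineered receptors, whole-cell current clamp at RT. ECS at pH 7.3; K-gluconate internal at pH 7.2. 500 ms steps from −200 to 700 pA with and without ligand. Rheobase taken as the smallest depolarising step that fires an action potential; input resistance from negative steps.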

B1: CODA71: parental chimeric LGIC: human α7-nAChR ligand binding domain with GlyRα1 Cys-loop fused to human GlyRα1 ion pore domain (protein)
chain: MRCSPGGVWLALAASLLHVSLQGEFQRKLYKELVKNYNPLERPVANDSQPLTVYFSLSLLQIMDVDEKNQVLTTNIWLQMSWTDHYLQWNVSEYPGVKTVRFPDGQIWKPDILLYNSADERFDATFHTNVLVNSSGHCQYLPPGIFKSSCPMDLKNFPMDVQTCKLKFGSWSYGGWSLDLQMQEADISGYIPNGEWDLVGIPGKRSERFYECCKEPYPDVTFTVTMRRRMGYYLIQMYIPSLLIVILSWISFWINMDAAPARVGLGITTVLTMTTQSSGSRASLPKVSYVKAIDIWMAVCLLFVFSALLEYAAVNFVSRQHKELLRFRRKRRHHKSPMLNLFQEDEAGEGRFNFSAYGMGPACLQAKDGISVKGANNSNTTNPPPAPSKSPEEMRKLFIQRAKKIDKISRIGFPMAFLIFNMFYWIIYKIVRREDVHNQ
modifications: synthetic sequence of chimeric LGIC
- YFP fluorescence quenching using CNL001 ([1]; 1 nM CNL001, first column): 3.727%
- YFP fluorescence quenching using CNL001 ([1]; 1 nM CNL001, second column): 20.231%
- YFP fluorescence quenching using TC-5619/Bradanicline ([1]; 1 nM brd): 9.41%
- YFP fluorescence quenching using TC-5619/Bradanicline ([1]; 3 nM brd): 44.38%
- YFP fluorescence quenching using Varenicline ([1]; 3 nM var, first column): −2.36
- YFP fluorescence quenching using Varenicline ([1]; 3 nM var, second column): −3.522
- YFP fluorescence quenching using CNL001 ([1]; 10 nM CNL001, first column): 81.096%
- YFP fluorescence quenching using CNL001 ([1]; 10 nM CNL001, second column): 82.368%
- YFP fluorescence quenching using TC-5619/Bradanicline ([1]; 10 nM brd): 76.61%
- YFP fluorescence quenching using TC-5619/Bradanicline ([1]; 30 nM brd): 70.23%
- YFP fluorescence quenching using Facinicline ([1]; 30 nM fac): 53.42
- YFP fluorescence quenching using Varenicline ([1]; 30 nM var, first column): −4.255
- YFP fluorescence quenching using Varenicline ([1]; 30 nM var, second column): −3.636
- YFP fluorescence quenching using CNL001 ([1]; 50 nM CNL001, first column): 83.62%
- YFP fluorescence quenching using CNL001 ([1]; 50 nM CNL001, second column): 84.482%
- YFP fluorescence quenching using ABT-126 ([1]; 50 nM abt): −1.98%
- YFP fluorescence quenching using CNL001 ([1]; 100 nM CNL001, first column): 84.297%
- YFP fluorescence quenching using CNL001 ([1]; 100 nM CNL001, second column): 85.368%
- YFP fluorescence quenching using CNL002 ([1]; 100 nM CNL002): 49.61%
- YFP fluorescence quenching using ABT-126 ([1]; 100 nM abt): 24.27%
- YFP fluorescence quenching using AZD-0328 ([1]; 100 nM azd0328): 73.59%
- YFP fluorescence quenching using TC-5619/Bradanicline ([1]; 100 nM brd): 78.62%
- YFP fluorescence quenching using Facinicline ([1]; 100 nM fac): 83.6
- YFP fluorescence quenching using ABT-126 ([1]; 300 nM abt): 56.8%
- YFP fluorescence quenching using AZD-0328 ([1]; 300 nM azd0328): 78.09%
- YFP fluorescence quenching using TC-5619/Bradanicline ([1]; 300 nM brd): 75.51%
- YFP fluorescence quenching using Facinicline ([1]; 300 nM fac): 77.44
- YFP fluorescence quenching using Varenicline ([1]; 300 nM var, first column): 46.195
- YFP fluorescence quenching using Varenicline ([1]; 300 nM var, second column): 45.522
- YFP fluorescence quenching using ABT-126 ([1]; 500 nM abt): 76.28%
- YFP fluorescence quenching using Varenicline ([1]; 500 nM var, first column): 69.253
- YFP fluorescence quenching using Varenicline ([1]; 500 nM var, second column): 71.705
- YFP fluorescence quenching using CNL001 ([1]; 1 uM CNL001, first column): 85.647%
- YFP fluorescence quenching using CNL001 ([1]; 1 uM CNL001, second column): 86.358%
- YFP fluorescence quenching using CNL002 ([1]; 1 uM CNL002): 74.15%
- YFP fluorescence quenching using ABT-126 ([1]; 1 uM abt): 73.16%
- YFP fluorescence quenching using TC-6987 ([1]; 1 uM tc6987): 31.56
- YFP fluorescence quenching using Varenicline ([1]; 1 uM var, first column): 79.254
- YFP fluorescence quenching using Varenicline ([1]; 1 uM var, second column): 79.244
- YFP fluorescence quenching using ABT-126 ([1]; 3 uM abt): 70.98%
- YFP fluorescence quenching using TC-6987 ([1]; 3 uM tc6987): 31.82
- YFP fluorescence quenching using TC-6987 ([1]; 5 uM tc6987): 30.75
- YFP fluorescence quenching using ABT-126 ([1]; 10 uM abt): 72.62%
- YFP fluorescence quenching using TC-6987 ([1]; 10 uM tc6987): 56.68
- YFP fluorescence quenching using CNL002 ([1]; 30 uM CNL002): 75.21%
- YFP fluorescence quenching using ABT-126 ([1]; 30 uM abt): 77.49%
- YFP fluorescence quenching using AZD-0328 ([1]; 30 uM azd0328): 79.05%
- YFP fluorescence quenching using Facinicline ([1]; 30 uM fac): 79.62
- YFP fluorescence quenching using TC-6987 ([1]; 30 uM tc6987): 51.46
- YFP fluorescence quenching using ABT-126 ([1]; 50 uM abt): 77.96%
- YFP fluorescence quenching using TC-6987 ([1]; 50 uM tc6987): 61.26
- YFP fluorescence quenching using ABT-126 ([1]; 100 uM abt): 77.81%
- YFP fluorescence quenching using TC-6987 ([1]; 100 uM tc6987): 43.21
- YFP fluorescence quenching using TC-6987 ([1]; 300 uM tc6987): 7.79
- YFP fluorescence quenching using TC-6987 ([1]; 500 uM tc6987): 51.58
- percent quench of YFP fluorescence, 30 nM TC-6683 [1]: −14.43%
- percent quench of YFP fluorescence, 300 nM TC-6683 [1]: −13.08%
- percent quench of YFP fluorescence, 3 uM TC-6683 [1]: −13.71%
- percent quench of YFP fluorescence, 30 uM TC-6683 [1]: −14.02%
- percent quench of YFP fluorescence, 100 uM TC-6683 [1]: −8.77%
- percent quench of YFP fluorescence, 10 uM ach ([1]; acetylcholine 10 uM): 15.61%
- percent quench of YFP fluorescence, 30 uM ach ([1]; acetylcholine 30 uM): 63.31%
- percent quench of YFP fluorescence, 50 uM ach ([1]; acetylcholine 50 uM): 73.16%
- percent quench of YFP fluorescence, 100 uM ach [1]: 74.94%
- percent quench of YFP fluorescence, 300 uM ach [1]: 65.94%
- percent quench of YFP fluorescence, 500 uM ach [1]: 62.78%
- percent quench of YFP fluorescence, 1 mM ach [1]: 74.24%
- percent quench of YFP fluorescence, 3 mM ach [1]: 76.27%
- percent quench of YFP fluorescence, 5 mM ach ([1]; acetylcholine 5 mM): 77.15%
- percent quench of YFP fluorescence, 10 mM ach [1]: 77.96%
- sensitivity to ABT-126 compared with wild type α7-nAChR ([2]; ligand ABT-126): approximately as sensitive
- fold more sensitive to AZD-0328 than wild type ([2]; ligand AZD-0328): approximately 3 fold
- fold more sensitive to Facinicline/RG3487 than wild type ([2]; ligand Facinicline/RG3487): ~10 fold
- sensitivity to TC-6987 compared with wild type α7-nAChR ([2]; ligand TC-6987): approximately as sensitive
- type of agonist activity of TC-6987 on the receptor ([2]; ligand TC-6987, similar to wild type): partial agonist activity
- sensitivity to acetylcholine compared with wild type α7-nAChR ([2]; ligand acetylcholine): approximately as sensitive
- fold less sensitive to nicotine than wild type ([2]; ligand nicotine): ~2 fold

B2: CODA1056: engineered chimeric LGIC receptor, R101F, Y115E, Y210W in SEQ ID NO: 33 (protein)
chain: B1 chain with R101F, Y115E, Y210W
modifications: synthetic sequence of chimeric LGIC
- YFP fluorescence quenching using CNL001 ([1]; 1 nM CNL001, first column): −8.104%
- YFP fluorescence quenching using CNL001 ([1]; 1 nM CNL001, second column): −12.153%
- YFP fluorescence quenching using TC-5619/Bradanicline ([1]; 1 nM brd): −7.894%
- YFP fluorescence quenching using TC-5619/Bradanicline ([1]; 3 nM brd): −11.812%
- YFP fluorescence quenching using CNL001 ([1]; 10 nM CNL001, first column): −10.462%
- YFP fluorescence quenching using CNL001 ([1]; 10 nM CNL001, second column): −4.735%
- YFP fluorescence quenching using TC-5619/Bradanicline ([1]; 10 nM brd): 36.211%
- YFP fluorescence quenching using TC-5619/Bradanicline ([1]; 30 nM brd): 40.624%
- YFP fluorescence quenching using CNL001 ([1]; 50 nM CNL001, first column): −8.617%
- YFP fluorescence quenching using CNL001 ([1]; 50 nM CNL001, second column): −1.606%
- YFP fluorescence quenching using ABT-126 ([1]; 50 nM abt): −20.96%
- YFP fluorescence quenching using CNL001 ([1]; 100 nM CNL001, first column): −1.243%
- YFP fluorescence quenching using CNL001 ([1]; 100 nM CNL001, second column): 1.838%
- YFP fluorescence quenching using ABT-126 ([1]; 100 nM abt): −21.95%
- YFP fluorescence quenching using TC-5619/Bradanicline ([1]; 100 nM brd): 65.869%
- YFP fluorescence quenching using ABT-126 ([1]; 300 nM abt): −10.96%
- YFP fluorescence quenching using TC-5619/Bradanicline ([1]; 300 nM brd): 59.661%
- YFP fluorescence quenching using CNL001 ([1]; 1 uM CNL001, first column): −0.567%
- YFP fluorescence quenching using CNL001 ([1]; 1 uM CNL001, second column): 4.663%
- YFP fluorescence quenching using ABT-126 ([1]; 1 uM abt): 10.79%
- percent quench of YFP fluorescence, 30 nM TC-6683 [1]: −19.889%
- percent quench of YFP fluorescence, 300 nM TC-6683 [1]: −22.443%
- percent quench of YFP fluorescence, 3 uM TC-6683 [1]: −12.623%
- percent quench of YFP fluorescence, 30 uM TC-6683 [1]: −10.728%
- percent quench of YFP fluorescence, 100 uM TC-6683 [1]: −10.959%
- percent quench of YFP fluorescence, 100 uM ach [1]: −20.55%
- percent quench of YFP fluorescence, 300 uM ach [1]: −19.32%
- percent quench of YFP fluorescence, 500 uM ach [1]: −19.75%
- percent quench of YFP fluorescence, 1 mM ach [1]: −14.08%
- percent quench of YFP fluorescence, 3 mM ach [1]: 14.07%
- percent quench of YFP fluorescence, 10 mM ach [1]: 25.7%
- Rheobase Shift; Rat DRG Neurons, +TC-5619 @ EC90 ([3]; +TC-5619 @ EC90): 632 ± 43 pA
- Rheobase Shift; Rat DRG Neurons, Baseline ([3]; Baseline, no ligand): 114 ± 12 pA
